Consider one molecule from article PMC5800599.

Holding throughout (assay): SPR; Fc immobilised on a CM5 chip by amine coupling (400-1000 RU), mFcγRIV flowed over; Biacore T100; 25°C; 20 mM MOPS, 100 mM sodium chloride, 0.05% P20, 1 μM bovine serum albumin; mean of at least two independent experiments
(In general: In SPR one partner is held on a chip, and binding of the other changes the refractive index at the surface.)

In test [1] the target is mouse IgG2b Fc I300L, complex-type N-glycan (mouse).
The target of test [2] is mouse IgG2c Fc L300I, truncated (1)GlcNAc N-glycan (mouse).
The target in test [3] is mouse IgG2c Fc (residues 224-447), complex-type N-glycan (mouse).
The target in test [4] is mouse IgG2b Fc, truncated (1)GlcNAc N-glycan (mouse).
Test [5] concerns the target mouse IgG2b Fc I300L/K326R/D327A, complex-type N-glycan (mouse).
Test [6] addresses mouse IgG2b Fc I300L/K326R/D327A, truncated (1)GlcNAc N-glycan (mouse).
The target of test [7] is mouse IgG2c Fc L300I, complex-type N-glycan (mouse).
The target of test [8] is mouse IgG2b Fc I300L, truncated (1)GlcNAc N-glycan (mouse).
Test [9] concerns the target mouse IgG2c Fc L300I/R326K/A327D, truncated (1)GlcNAc N-glycan (mouse).
Test [10] addresses mouse IgG2c Fc L300I/R326K/A327D, complex-type N-glycan (mouse).
Test [11] deals with mouse IgG2c Fc (residues 224-447), truncated (1)GlcNAc N-glycan (mouse).
For test [12], the target named is mouse IgG2b Fc, complex-type N-glycan (mouse).

B1: mouse Fc γ receptor IV (receptor)
chain: QAGLQKAVVNLDPKWVRVLEEDSVTLRCQGTFSPEDNSIKWFHNESLIPHQDANYVIQSARVKDSGMYRCQTALSTISDPVQLEVHMGWLLLQTTKWLFQEGDPIHLRCHSWQNRPVRKVTYLQNGKGKKYFHENSELLIPKATHNDSGSYFCRGLIGHNNKSSASFRISLGD
With B1, the Kd (commonly the concentration at which binding is half-saturated) is 15 nM in [1]; 1000 nM in [2]; 12 nM in [3]; 2800 nM in [4]; 8 nM in test [5]; 1300 nM in [6]. Moreover, the dissociation constant (Kd) in [7] stood at 9 nM; in [8], 1800 nM; in test [9] it was 1100 nM; in test [10] it was 9 nM; in [11], 600 nM; in test [12], 18 nM.
